One substance from publication PMC7325057 can be followed below.

The data set concerns CC(=O)N(O)CCCC[C@H](N)C(=O)O. Briefly: purified protein. To be noted: 2 mM citrate, 2 mM ATP, 15 mM MgCl2, pH 7.5, 37 °C, apparent.

Usually Km stands for the concentration of substrate that gives half-maximal velocity. Usually kcat stands for the number of substrate molecules converted per active site and unit of time at saturation. For orientation: kcat/Km means the turnover number divided by the Michaelis constant. “hvKP IucA (Klebsiella pneumoniae subsp. pneumoniae)”: the Km was determined as 790 ± 20 µM, the kcat is 0.85 ± 0.02 s⁻¹ and the kcat/Km stood at 1080 M⁻¹ s⁻¹.
